B1: P3A1-[G4S]5-P3A1 homodimer with His6Myc tag (VNAR)
chain: TRVDQTPRTATKETGESLTINCVLTDTSYGLYSTSWFRKNPGTTDWERMSIGGRYVESVNKGAKSFSLRIKDLTVADSATYYCKAREARHPWLRQWYDGAGTVLTVNGGGGSGGGGSGGGGSGGGGSGGGGSTRVDQTPRTATKETGESLTINCVLTDTSYGLYSTSWFRKNPGTTDWERMSIGGRYVESVNKGAKSFSLRIKDLTVADSATYYCKAREARHPWLRQWYDGAGTVLTVNQASGAHHHHHHGAEFEQKLISEEDL
notes: genetic fusion of two VNAR domains; also called P3A1 dimer 6xHis myc; P3A1-P3A1
B2: P3A1-P3A1-S-mal-vcMMAE (VNAR)
chain: TRVDQTPRTATKETGESLTINCVLTDTSYGLYSTSWFRKNPGTTDWERMSIGGRYVESVNKGAKSFSLRIKDLTVADSATYYCKAREARHPWLRQWYDGAGTVLTVNGGGGSGGGGSGGGGSGGGGSGGGGSTRVDQTPRTATKETGESLTINCVLTDTSYGLYSTSWFRKNPGTTDWERMSIGGRYVESVNKGAKSFSLRIKDLTVADSATYYCKAREARHPWLRQWYDGAGTVLTVNQASGAHHHHHHGAEFEQKLISEEDLG
modifications: chain 1 pos 265 (C-terminal Gly, written G): carboxyl amidated with cysteamine (intein cleavage); its thiol joined by thioether to maleimide MC vc PAB MMAE
B3: P3A1-P3A1-Ox-MMAE (VNAR)
chain: TRVDQTPRTATKETGESLTINCVLTDTSYGLYSTSWFRKNPGTTDWERMSIGGRYVESVNKGAKSFSLRIKDLTVADSATYYCKAREARHPWLRQWYDGAGTVLTVNGGGGSGGGGSGGGGSGGGGSGGGGSTRVDQTPRTATKETGESLTINCVLTDTSYGLYSTSWFRKNPGTTDWERMSIGGRYVESVNKGAKSFSLRIKDLTVADSATYYCKAREARHPWLRQWYDGAGTVLTVNQASGAHHHHHHGAEFEQKLISEEDLG
modifications: chain 1 pos 265 (C-terminal Gly, written G): carboxyl derivatised with O,O'-1,3-propanediylbishydroxylamine (C-terminal aminoxy), joined by oxime to benzaldehyde PEG4 MMAE (non-cleavable)
notes: linker as for m77
B4: P3A1-P3A1-Ox-vcMMAE (VNAR)
chain: TRVDQTPRTATKETGESLTINCVLTDTSYGLYSTSWFRKNPGTTDWERMSIGGRYVESVNKGAKSFSLRIKDLTVADSATYYCKAREARHPWLRQWYDGAGTVLTVNGGGGSGGGGSGGGGSGGGGSGGGGSTRVDQTPRTATKETGESLTINCVLTDTSYGLYSTSWFRKNPGTTDWERMSIGGRYVESVNKGAKSFSLRIKDLTVADSATYYCKAREARHPWLRQWYDGAGTVLTVNQASGAHHHHHHGAEFEQKLISEEDLG
modifications: chain 1 pos 265 (C-terminal Gly, written G): carboxyl derivatised with O,O'-1,3-propanediylbishydroxylamine (C-terminal aminoxy), joined by oxime to benzaldehyde PEG2 vc PAB MMAE
notes: linker as for m77
B5: D3 humanised ADV2 (VNAR)
VNAR: TRVDQSPSSLSASVGDRVTITCVLTDTSYGLYSTSWFRKNPGTTDWERMSIGGRYSESVNKGAKSFTLTISSLQPEDSATYYCKAQSGMAISTGSGHGYNWYDGAGTKVEIKQ
notes: also called D3 AD V2
B6: D3 humanised EL V2 (VNAR)
VNAR: ASVNQSPSSLSASVGDRVTITCVLTDTSYGLYSTSWFRKNPGTTDWERMSIGGRYVESVNKRAKSFTLTISSLQPEDFATYYCKAQSGMAISTGSGHGYNWYDGAGTKVEIK
notes: also called D3 EL V2
B7: D3 humanised EL V4 (VNAR)
VNAR: ASVNQSPSSLSASVGDRVTITCVLTDTSYGLYSTSWYQQKPGTTDWERMSIGGRYVESVNKRAKSFTLTISSLQPEDFATYYCKAQSGMAISTGSGHGYNWYDGAGTKVEIK
notes: also called D3 EL V4
B8: B1 G2 (loop-grafted humanised B1) (VNAR)
VNAR: TRVDQSPSSLSASVGDRVTITCVLTGANYGLASTYWYRKNPGSSNQERISISGRYSESVNKRTMSFTLTISSLQPEDSATYYCRAYPWGAGAPWLVQWYDGAGTKVEIKQ
notes: humanised VNAR
B9: B1 G1 (loop-grafted humanised B1) (VNAR)
VNAR: TRVDQSPSSLSASVGDRVTITCVLTGANYGLASTYWYRKNPGSSNKEQISISGRYSESVNKGTKSFTLTISSLQPEDSATYYCRAYPWGAGAPWLVQWYDGAGTKVEIKQ
notes: humanised VNAR
B10: B1 humanised V5 (VNAR)
VNAR: ASVDQSPSSLSASVGDRVTITCVVTGANYGLAATYWYRKNPGSSNQERISISGRYSESVNKRTMSFTLTISSLQPEDSATYYCKAYPWGAGAPWLVQWYDGAGTKVEIKQ
notes: humanised VNAR; also called B1V5
B11: B1 humanised V7 (VNAR)
VNAR: ASVDQSPSSASASVGDRLTITCVVTGANYGLAATYWYRKNPGSSNQERISISGRYSESVNKRTMSFTLTISSLQPEDSATYYCKAYPWGAGAPWLVQWYDGAGTKLEVKQ
notes: humanised VNAR; also called B1V7
B12: P3A1 V1 dimer (VNAR)
chain: TRVDQSPSSLSASVGDRVTITCVLTDTSYGLYSTSWFRKNPGTTDWERMSIGGRYVESVNKGAKSFTLTISSLQPEDFATYYCKAREARHPWLRQWYDGAGTKVEIKGGGGSGGGGSGGGGSGGGGSGGGGSTRVDQSPSSLSASVGDRVTITCVLTDTSYGLYSTSWFRKNPGTTDWERMSIGGRYVESVNKGAKSFTLTISSLQPEDFATYYCKAREARHPWLRQWYDGAGTKVEIKQASGAHHHHHHGAEFEQKLISEEDLG
notes: humanised VNAR dimer
B13: P3A1 G2 dimer (VNAR)
chain: TRVDQSPSSLSASVGDRVTITCVLTDTSYGLYSTYWYRKNPGTTDWERMSIGGRYSESVNKGAKSFTLTISSLQPEDSATYYCRAREARHPWLRQWYDGAGTKVEIKGGGGSGGGGSGGGGSGGGGSGGGGSTRVDQSPSSLSASVGDRVTITCVLTDTSYGLYSTYWYRKNPGTTDWERMSIGGRYSESVNKGAKSFTLTISSLQPEDSATYYCRAREARHPWLRQWYDGAGTKVEIKQASGAHHHHHHGAEFEQKLISEEDLG
notes: humanised VNAR dimer
B14: P3A1 G1 dimer (VNAR)
chain: TRVDQSPSSLSASVGDRVTITCVLTDTSYGLYSTYWYRKNPGSSNKEQISISGRYSESVNKGTKSFTLTISSLQPEDSATYYCRAREARHPWLRQWYDGAGTKVEIKGGGGSGGGGSGGGGSGGGGSGGGGSTRVDQSPSSLSASVGDRVTITCVLTDTSYGLYSTYWYRKNPGSSNKEQISISGRYSESVNKGTKSFTLTISSLQPEDSATYYCRAREARHPWLRQWYDGAGTKVEIKQASGAHHHHHHGAEFEQKLISEEDLG
notes: humanised VNAR dimer
B15: BA11-aminoxy (VNAR)
VNAR: TRVDQSPSSLSASVGDRVTITCVLTDTSYPLYSTYWYRKNPGSSNKEQISISGRYSESVNKGTKSFTLTISSLQPEDSATYYCRAMSTNIWTGDGAGTKVEIK
modifications: C-terminal aminoxy from dioxyamine cleavage of the intein fusion
B16: BA11 C-terminal cysteine derivative (VNAR)
VNAR: TRVDQSPSSLSASVGDRVTITCVLTDTSYPLYSTYWYRKNPGSSNKEQISISGRYSESVNKGTKSFTLTISSLQPEDSATYYCRAMSTNIWTGDGAGTKVEIK
modifications: additional C-terminal cysteine from cysteine cleavage of the intein fusion
notes: also called BA11-cys

The target in one experiment is T1, human ROR1 extracellular domain-Fc fusion (human, UniProt Q01973 30-406).
T1 construct: extracellular domain; also called hROR1; ROR1-hFc
Briefly: SPR. (Surface plasmon resonance follows binding to a sensor surface in real time, without labels.)
The term Kd denotes a measure of binding affinity in units of concentration. Lower therefore signals higher affinity. As a reminder, the koff is the first-order rate constant of dissociation. A high value points to a short-lived complex. As a reminder, the kon is a measure of how fast the partners come together. As to B1, the affinity, expressed as Kd, was 1.61 nM; the koff was 0.00296 s⁻¹; the on-rate constant (kon) came to 1.86e+06 M⁻¹ s⁻¹.
In turn, B2 came in with an equilibrium dissociation constant (Kd) of 0.59 nM, a koff of 0.0026 s⁻¹ and a kon of 4.96e+06 M⁻¹ s⁻¹.
Turning to B3, the Kd was 0.78 nM, the koff came to 0.0032 s⁻¹ and the kon turned out to be 4.2e+06 M⁻¹ s⁻¹.
The like results for B4 were, in that order, 1.43 nM, 0.00277 s⁻¹ and 2.07e+06 M⁻¹ s⁻¹.

For a further experiment, the target named is T1, human ROR1 extracellular domain-Fc …. Briefly: SPR, hROR1 ECD-Fc on chip.
Molecule B5 came in with a Kd of 51.6 nM, a koff of 0.00236 s⁻¹ and a kon of 45800 M⁻¹ s⁻¹.
Turning to B6, binding was characterised by a dissociation constant (Kd) of 18.9 nM and the kon turned out to be 1.85e+06 M⁻¹ s⁻¹.
As for B7, the affinity, expressed as Kd, was 58.5 nM; the koff was ~0.0545 s⁻¹; the kon amounted to 1.38e+06 M⁻¹ s⁻¹.
The like results for B8 were, in that order, 45.9 nM, 0.0079 s⁻¹ and 185000 M⁻¹ s⁻¹.
Molecule B9 returned an equilibrium dissociation constant (Kd) of 82.8 nM, a koff of 0.0162 s⁻¹ and a kon of 220000 M⁻¹ s⁻¹.
The like results for B10 were, in that order, 0.74 nM, 3.85e-05 s⁻¹ and 52000 M⁻¹ s⁻¹.
In the case of B11, the Kd worked out at 0.77 nM, the koff was 5.54e-05 s⁻¹ and the kon came out at 77400 M⁻¹ s⁻¹.
The like results for B12 were, in that order, 0.18 nM, 0.000846 s⁻¹ and 4.78e+06 M⁻¹ s⁻¹.
The molecule B13 gave a Kd of 0.77 nM, a koff of 0.00119 s⁻¹ and a kon of 1.88e+06 M⁻¹ s⁻¹.
On the same counts, the results for B14 are 0.43 nM, 0.00147 s⁻¹ and 4.3e+06 M⁻¹ s⁻¹.

Another experiment shares this target. The experiment is described as follows: SPR. This is another data set of the same source.
In the case of B1, binding was put at a Kd of 0.35 nM, the koff worked out at 0.000637 s⁻¹ and the kon was determined as 2.08e+06 M⁻¹ s⁻¹.

The target in a further experiment is T2, cynomolgus serum albumin (cynomolgus).
T2 construct: also called CSA; Cyano
T2 sequence (A2V9Z4 25-608): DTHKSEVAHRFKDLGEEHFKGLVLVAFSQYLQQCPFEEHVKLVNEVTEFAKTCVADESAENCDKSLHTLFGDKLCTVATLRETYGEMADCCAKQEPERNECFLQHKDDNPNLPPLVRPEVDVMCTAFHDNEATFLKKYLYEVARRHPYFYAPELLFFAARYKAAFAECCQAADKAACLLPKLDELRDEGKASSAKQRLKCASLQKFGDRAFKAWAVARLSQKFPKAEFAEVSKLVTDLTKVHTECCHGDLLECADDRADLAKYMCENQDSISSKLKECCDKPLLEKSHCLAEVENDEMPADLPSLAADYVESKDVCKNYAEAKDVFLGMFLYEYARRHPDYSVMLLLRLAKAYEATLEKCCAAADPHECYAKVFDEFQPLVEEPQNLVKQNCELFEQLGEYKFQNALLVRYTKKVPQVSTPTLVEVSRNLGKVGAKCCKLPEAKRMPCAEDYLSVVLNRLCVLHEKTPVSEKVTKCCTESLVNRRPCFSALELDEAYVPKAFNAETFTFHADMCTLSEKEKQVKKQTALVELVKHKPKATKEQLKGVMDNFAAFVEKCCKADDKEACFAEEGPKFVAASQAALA
The experiment is described as follows: SPR, CSA on chip, pH 7.4.
B15 gave a Kd of 7.97 nM.
On the same count and under the same terms, under B16 stands 2.1 nM.
